Experimental findings from patent US20070060518A1 are described below.

The target of test [1] is HLA-A*0201 class I monomer on avidin-coated plates (iTopia Epitope Discovery System) (human). Put plainly: iTopia affinity assay (FIGS. 27A and 27B).
Test [2] shares this target. Put plainly: iTopia off-rate assay (FIG. 26).

Consider “PRAME425-433 S425F L433Nle analog (peptide)”, for which the fold reduction of ED50 against the native peptide in test [1] was above 4 fold.

“PRAME425-433 analog with Nva at PΩ (peptide)” gave a t1/2 in test [2] of 17.2 h.
